Reference: patent publication US20260049138A1 (Chugai, published 2026)
Positions count from the first letter of the chain named. In names and notes the source's numbering stands.

B1: GLS3000 H27dA one-arm antibody (antibody, human IgG1, kappa, L234A L235A, N297A, name in Kabat numbering)
heavy: QVQLVESGGGVVQPGRSLRLSCAASGFTFSNAWMHWVRQAPGKGLEWVAQIKAKSNNYATYYAESVKGRFTISRDDSKNSLYLQMNSLKTEDTAVYYCRYVHYGAYYGVDAWGQGTTVTVSSASTKGPSVFPLAPSSKSTSGGTAALGCLVKDYFPEPVTVSWNSGALTSGVHTFPAVLQSSGLYSLSSVVTVPSSSLGTQTYICNVNHKPSNTKVDKKVEPKSCDKTHTCPPCPAPEAAGGPSVFLFPPKPKDTLMISRTPEVTCVVVDVSHEDPEVKFNWYVDGVEVHNAKTKPREEQYASTYRVVSVLTVLHQDWLNGKEYKCKVSNKALPAPIEKTISKAKGQPREPQVYTLPPSRCELTKNQVSLSCAVKGFYPSDIAVEWESNGQPENNYKTTPPVLDSDGSFFLVSKLTVDKSRWQQGNVFSCSVMHEALHNHYTQKSLSLSPDYKDDDDK
chain: EPKSSDKTHTCPPCPAPELLGGPSVFLFPPKPKDTLMISRTPEVTCVVVDVSHEDPEVKFNWYVDGVEVHNAKTKPREEQYNSTYRVVSVLTVLHQDWLNGKEYKCKVSNKALPAPIEKTISKAKGQPREPQVCTLPPSRDELTKNQVSLWCLVKGFYPSDIAVEWESNGQPENNYKTTPPVLDSDGSFFLYSKLTVDKSRWQQGNVFSCSVMHEALHNRYTQKSLSLSP
light: DIVMTQSPLSLPVTPGEPASISCRSSQSLVASNRNTYLHWYQQKPGQAPRLLIYKVSNRFSGVPDRFSGSGSGTDFTLKISRVEAEDVGVYYCGQGTQVPYTFGQGTKLEIKRTVAAPSVFIFPPSDEQLKSGTASVVCLLNNFYPREAKVQWKVDNALQSGNSQESVTEQDSKDSTYSLSSTLTLSKADYEKHKVYACEVTHQGLSSPVTKSFNRGEC
B2: GLS3000 F55A one-arm antibody (antibody, human IgG1, kappa, L234A L235A, N297A, name in Kabat numbering)
heavy: B1 heavy
chain: B1 chain
light: B1 light with A31H, F60A
B3: GLS3000 F55D one-arm antibody (antibody, human IgG1, kappa, L234A L235A, N297A, name in Kabat numbering)
heavy: B1 heavy
chain: B1 chain
light: B1 light with A31H, F60D
B4: GLS3000 F55E one-arm antibody (antibody, human IgG1, kappa, L234A L235A, N297A, name in Kabat numbering)
heavy: B1 heavy
chain: B1 chain
light: B1 light with A31H, F60E
B5: GLS3000 F55G one-arm antibody (antibody, human IgG1, kappa, L234A L235A, N297A, name in Kabat numbering)
heavy: B1 heavy
chain: B1 chain
light: B1 light with A31H, F60G
B6: GLS3000 F55H one-arm antibody (antibody, human IgG1, kappa, L234A L235A, N297A, name in Kabat numbering)
heavy: B1 heavy
chain: B1 chain
light: B1 light with A31H, F60H
B7: GLS3000 F55I one-arm antibody (antibody, human IgG1, kappa, L234A L235A, N297A, name in Kabat numbering)
heavy: B1 heavy
chain: B1 chain
light: B1 light with A31H, F60I
B8: GLS3000 F55K one-arm antibody (antibody, human IgG1, kappa, L234A L235A, N297A, name in Kabat numbering)
heavy: B1 heavy
chain: B1 chain
light: B1 light with A31H, F60K
B9: GLS3000 F55L one-arm antibody (antibody, human IgG1, kappa, L234A L235A, N297A, name in Kabat numbering)
heavy: B1 heavy
chain: B1 chain
light: B1 light with A31H, F60L
B10: GLS3000 F55M one-arm antibody (antibody, human IgG1, kappa, L234A L235A, N297A, name in Kabat numbering)
heavy: B1 heavy
chain: B1 chain
light: B1 light with A31H, F60M
B11: GLS3000 F55N one-arm antibody (antibody, human IgG1, kappa, L234A L235A, N297A, name in Kabat numbering)
heavy: B1 heavy
chain: B1 chain
light: B1 light with A31H, F60N
B12: GLS3000 F55P one-arm antibody (antibody, human IgG1, kappa, L234A L235A, N297A, name in Kabat numbering)
heavy: B1 heavy
chain: B1 chain
light: B1 light with A31H, F60P
B13: GLS3000 F55Q one-arm antibody (antibody, human IgG1, kappa, L234A L235A, N297A, name in Kabat numbering)
heavy: B1 heavy
chain: B1 chain
light: B1 light with A31H, F60Q
B14: GLS3000 F55R one-arm antibody (antibody, human IgG1, kappa, L234A L235A, N297A, name in Kabat numbering)
heavy: B1 heavy
chain: B1 chain
light: B1 light with A31H, F60R
B15: GLS3000 F55S one-arm antibody (antibody, human IgG1, kappa, L234A L235A, N297A, name in Kabat numbering)
heavy: B1 heavy
chain: B1 chain
light: B1 light with A31H, F60S
B16: GLS3000 F55T one-arm antibody (antibody, human IgG1, kappa, L234A L235A, N297A, name in Kabat numbering)
heavy: B1 heavy
chain: B1 chain
light: B1 light with A31H, F60T
B17: GLS3000 F55V one-arm antibody (antibody, human IgG1, kappa, L234A L235A, N297A, name in Kabat numbering)
heavy: B1 heavy
chain: B1 chain
light: B1 light with A31H, F60V
B18: GLS3000 F55W one-arm antibody (antibody, human IgG1, kappa, L234A L235A, N297A, name in Kabat numbering)
heavy: B1 heavy
chain: B1 chain
light: B1 light with A31H, F60W
B19: GLS3000 F55Y one-arm antibody (antibody, human IgG1, kappa, L234A L235A, N297A, name in Kabat numbering)
heavy: B1 heavy
chain: B1 chain
light: B1 light with A31H, F60Y
B20: GLS3000 G89A one-arm antibody (antibody, human IgG1, kappa, L234A L235A, N297A, name in Kabat numbering)
heavy: B1 heavy
chain: B1 chain
light: B1 light with A31H, G94A
B21: GLS3000 G89D one-arm antibody (antibody, human IgG1, kappa, L234A L235A, N297A, name in Kabat numbering)
heavy: B1 heavy
chain: B1 chain
light: B1 light with A31H, G94D
B22: GLS3000 G89E one-arm antibody (antibody, human IgG1, kappa, L234A L235A, N297A, name in Kabat numbering)
heavy: B1 heavy
chain: B1 chain
light: B1 light with A31H, G94E
B23: GLS3000 G89F one-arm antibody (antibody, human IgG1, kappa, L234A L235A, N297A, name in Kabat numbering)
heavy: B1 heavy
chain: B1 chain
light: B1 light with A31H, G94F
B24: GLS3000 G89H one-arm antibody (antibody, human IgG1, kappa, L234A L235A, N297A, name in Kabat numbering)
heavy: B1 heavy
chain: B1 chain
light: B1 light with A31H, G94H
B25: GLS3000 G89I one-arm antibody (antibody, human IgG1, kappa, L234A L235A, N297A, name in Kabat numbering)
heavy: B1 heavy
chain: B1 chain
light: B1 light with A31H, G94I
B26: GLS3000 G89K one-arm antibody (antibody, human IgG1, kappa, L234A L235A, N297A, name in Kabat numbering)
heavy: B1 heavy
chain: B1 chain
light: B1 light with A31H, G94K
B27: GLS3000 G89L one-arm antibody (antibody, human IgG1, kappa, L234A L235A, N297A, name in Kabat numbering)
heavy: B1 heavy
chain: B1 chain
light: B1 light with A31H, G94L
B28: GLS3000 G89M one-arm antibody (antibody, human IgG1, kappa, L234A L235A, N297A, name in Kabat numbering)
heavy: B1 heavy
chain: B1 chain
light: B1 light with A31H, G94M
B29: GLS3000 G89N one-arm antibody (antibody, human IgG1, kappa, L234A L235A, N297A, name in Kabat numbering)
heavy: B1 heavy
chain: B1 chain
light: B1 light with A31H, G94N
B30: GLS3000 G89P one-arm antibody (antibody, human IgG1, kappa, L234A L235A, N297A, name in Kabat numbering)
heavy: B1 heavy
chain: B1 chain
light: B1 light with A31H, G94P
B31: GLS3000 G89Q one-arm antibody (antibody, human IgG1, kappa, L234A L235A, N297A, name in Kabat numbering)
heavy: B1 heavy
chain: B1 chain
light: B1 light with A31H, G94Q
B32: GLS3000 G89R one-arm antibody (antibody, human IgG1, kappa, L234A L235A, N297A, name in Kabat numbering)
heavy: B1 heavy
chain: B1 chain
light: B1 light with A31H, G94R
B33: GLS3000 G89T one-arm antibody (antibody, human IgG1, kappa, L234A L235A, N297A, name in Kabat numbering)
heavy: B1 heavy
chain: B1 chain
light: B1 light with A31H, G94T
B34: GLS3000 G89V one-arm antibody (antibody, human IgG1, kappa, L234A L235A, N297A, name in Kabat numbering)
heavy: B1 heavy
chain: B1 chain
light: B1 light with A31H, G94V

Target: T1, CD3ε homodimer protein (human, UniProt P07766 23-126, limits assumed)
T1 construct: also called CD3 (CD3ε)
T1 sequence (P07766 23-126 limits assumed): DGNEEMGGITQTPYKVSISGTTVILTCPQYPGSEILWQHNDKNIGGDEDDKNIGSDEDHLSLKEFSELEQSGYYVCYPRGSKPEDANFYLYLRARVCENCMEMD
Assay: SPR Biacore T200, CD3ε homodimer on chip;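 further: Light-chain single-residue variant antibodies injected over amine-coupled CD3ε homodimer on a CM4 chip at 25 °C, bound amount divided by that of the GLS3000-containing antibody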

Binder	ratio of amount bound vs unaltered GLS3000
B1	0.48
B2	1.13
B3	0.65
B4	0.72
B5	1.31
B6	0.94
B7	0.82
B8	1.33
B9	0.76
B10	0.8
B11	0.98
B12	1.16
B13	0.91
B14	1.31
B15	0.69
B16	0.41
B17	0.71

Binder	ratio of amount bound vs unaltered GLS3000
B18	0.69
B19	0.92
B20	1.13
B21	0.33
B22	0.26
B23	1.09
B24	0.7
B25	1.07
B26	0.4
B27	0.94
B28	0.52
B29	0.8
B30	0.35
B31	0.38
B32	0.19
B33	1.03
B34	1.63
